Assay results published in US20100267060A1 (BIOSITE, published 2010).

T1: Human secretagogin (SEQ ID NO: 1, containing an amino terminal … FLIS tag) (human, UniProt O76038 1-276)
T1 construct: It was biotinylated for the screening ELISA and unlabeled in the sandwich screens; also called Secretagogin protein; human secretagogin-biotin
T1 sequence: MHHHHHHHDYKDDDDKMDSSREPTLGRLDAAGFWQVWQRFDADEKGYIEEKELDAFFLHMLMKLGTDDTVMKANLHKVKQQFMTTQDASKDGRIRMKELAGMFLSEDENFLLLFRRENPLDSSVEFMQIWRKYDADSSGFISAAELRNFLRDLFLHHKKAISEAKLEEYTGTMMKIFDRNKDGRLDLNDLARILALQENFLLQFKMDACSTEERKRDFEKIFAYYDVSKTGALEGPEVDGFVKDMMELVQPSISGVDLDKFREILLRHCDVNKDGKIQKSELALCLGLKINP


Target: T1, Human secretagogin (SEQ ID NO: 1, …)
Assay: method not stated

Row | Binder | Ka [M⁻¹]
1 | ST108Z R1ZM 02871 (antibody, V domains shown, Mouse monoclonal antibody from phage-display library ST108ZR1, expressed in E. coli from a plasmid vector) VH: EVQLQQSGPELVKPGTSVKMSCKASGYSFTDYNMHWVKQSHGKSLEWIGYVDPNIGGTSYNPKFKGKATLTVNKSSSTAYMELRSLTSEDSAVYFCARYPNYSGRRYLFAMDYWGQGTSVTVSS VL: EIVLTQSPAIMSASPGEKVTLTCSASSSISSSYFYWYRQKPGSSPQLWIYGTSNLASGVPARFSGSGSGTSYSLTISSMEAEDAASYFCHQWSSYPLTFGAGTKLELK | ≥ 1e+10
2 | ST102Z X1ZM 01611 (antibody, V domains shown, Mouse monoclonal antibody from phage-display library ST102ZX1, expressed in E. coli from a plasmid vector) VH: QVQLQQSRPELVRPGASVKISCKAPGYIFTSHWMQWVRQRPGQGLEWIGEIFPGSGSTFYNEKFKDKATLTVDTSSSTAYMQLSSLTSEDSAVYFCARTDYYSSAMDYWGQGTSVTVSS VL: ETTVTQSPSSLSMAIGEKVTIRCITHTDIDDDMNWYQQKPGEPPKLLISEGNTLRPGVPSRFSSSGFGTDFFFTIENMLSEDVADYYCLQSDTLPLTFGAGTKLELK | ≥ 1e+10
